Assay results reported in publication PMC10786891, “Massively parallel profiling of RNA-targeting CRISPR-Cas13d”.
Positions count from the first letter of the chain named. Numbers in names are those of the source.

Biological target: T1, EsCas13d, nuclease-dead (Eubacterium siraeum, UniProt B0MS50, R295A;H300A;R849A;H854A)
T1 sequence: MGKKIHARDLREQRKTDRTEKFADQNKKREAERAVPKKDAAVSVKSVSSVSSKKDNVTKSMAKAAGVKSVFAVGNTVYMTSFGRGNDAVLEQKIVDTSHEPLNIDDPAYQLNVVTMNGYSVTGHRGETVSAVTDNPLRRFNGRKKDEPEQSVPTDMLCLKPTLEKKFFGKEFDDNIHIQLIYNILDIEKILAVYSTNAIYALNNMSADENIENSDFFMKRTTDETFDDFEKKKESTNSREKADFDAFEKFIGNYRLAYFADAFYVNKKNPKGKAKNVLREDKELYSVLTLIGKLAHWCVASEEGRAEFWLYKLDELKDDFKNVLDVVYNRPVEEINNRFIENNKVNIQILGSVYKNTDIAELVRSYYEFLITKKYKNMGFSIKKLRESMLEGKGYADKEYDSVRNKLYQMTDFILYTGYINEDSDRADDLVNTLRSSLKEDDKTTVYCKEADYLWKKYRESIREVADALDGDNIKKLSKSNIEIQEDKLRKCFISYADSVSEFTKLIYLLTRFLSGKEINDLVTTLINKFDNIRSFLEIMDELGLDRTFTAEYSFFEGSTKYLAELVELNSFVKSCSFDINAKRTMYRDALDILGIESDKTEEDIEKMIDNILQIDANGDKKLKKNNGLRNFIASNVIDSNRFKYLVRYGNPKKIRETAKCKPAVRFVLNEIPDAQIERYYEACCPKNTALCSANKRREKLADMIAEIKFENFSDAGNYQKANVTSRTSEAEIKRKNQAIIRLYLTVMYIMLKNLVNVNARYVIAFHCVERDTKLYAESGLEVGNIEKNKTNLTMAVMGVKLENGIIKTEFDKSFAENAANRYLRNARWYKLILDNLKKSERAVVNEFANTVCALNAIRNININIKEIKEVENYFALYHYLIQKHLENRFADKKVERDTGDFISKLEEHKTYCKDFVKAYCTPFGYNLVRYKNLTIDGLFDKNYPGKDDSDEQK
Assay: crRNA (strand 1, pre-loaded); Mg2+; 40 mM Tris-HCl pH 7.5, 150 mM NaCl, 6 mM MgCl2, 1 mM DTT, 0.1% Tween-20, 0.2 mg/ml BSA; 25 C; 10 min per concentration, then washed
Details: tags: His6-TwinStrep-SUMO cleaved; N-terminal SNAP kept (SNAP-Surface 488); label: 3' end held by stalled T7 RNA polymerase

B1: target 2 MT 5'PFS UGC 3'PFS CUC (mixed)
RNA 1: CACCCGUGCAAAAUUGCAGGGGUCUAAAACCUUCUCCAAAUUGUUUCAUCCU
RNA 2: GGGAAUGGAUCCACAUCUACGAAUUCUGCAGGAUGAAACAAUUUGGAGAAGCUCAGAUCGGAAGAGCACACGU
Kd: 26 ± 6 nM

B2: target 2 MT 5'PFS ACG 3'PFS AAU (mixed)
RNA 1: B1 RNA 1
RNA 2: B1 RNA 2 with U27A, G28C, C29G, C52A, U53A, C54U
Kd: 5.4 ± 1.3 nM

B3: target 2 MT 5'PFS UCG 3'PFS UGU (mixed)
RNA 1: B1 RNA 1
RNA 2: B1 RNA 2 with G28C, C29G, C52U, U53G, C54U
Kd: ~120 nM

B4: target 2 MT 5'PFS ACU 3'PFS UAU (mixed)
RNA 1: B1 RNA 1
RNA 2: B1 RNA 2 with U27A, G28C, C29U, C52U, U53A, C54U
Kd: 3.8 ± 0.6 nM

B5: target 2 MT 5'PFS UAU 3'PFS GGC (mixed)
RNA 1: B1 RNA 1
RNA 2: B1 RNA 2 with G28A, C29U, C52G, U53G
Kd: 44 ± 12 nM

B6: target 2 MT 5'PFS ACG 3'PFS AAC (mixed)
RNA 1: B1 RNA 1
RNA 2: B1 RNA 2 with U27A, G28C, C29G, C52A, U53A
Kd: 5.5 ± 1.2 nM

B7: target 2 MT 5'PFS GUU 3'PFS UAC (mixed)
RNA 1: B1 RNA 1
RNA 2: B1 RNA 2 with U27G, G28U, C29U, C52U, U53A
Kd: 22 ± 4 nM

B8: target 2 MT 5'PFS GCU 3'PFS CGG (mixed)
RNA 1: B1 RNA 1
RNA 2: B1 RNA 2 with U27G, G28C, C29U, U53G, C54G
Kd: 19 ± 4 nM

B9: target 2 MT 5'PFS CAC 3'PFS AAA (mixed)
RNA 1: B1 RNA 1
RNA 2: B1 RNA 2 with U27C, G28A, C52A, U53A, C54A
Kd: 1.71 ± 0.3 nM

B10: target 2 MT 5'PFS AUG 3'PFS CUA (mixed)
RNA 1: B1 RNA 1
RNA 2: B1 RNA 2 with U27A, G28U, C29G, C54A
Kd: 7.5 ± 0.9 nM

B11: target 2 MT 5'PFS ACU 3'PFS UAA (mixed)
RNA 1: B1 RNA 1
RNA 2: B1 RNA 2 with U27A, G28C, C29U, C52U, U53A, C54A
Kd: 4 ± 0.9 nM

B12: target 2 MT 5'PFS GGC 3'PFS ACU (mixed)
RNA 1: B1 RNA 1
RNA 2: B1 RNA 2 with U27G, C52A, U53C, C54U
Kd: 21.3 ± 2.5 nM

B13: target 2 MT 5'PFS CAC 3'PFS AAC (mixed)
RNA 1: B1 RNA 1
RNA 2: B1 RNA 2 with U27C, G28A, C52A, U53A
Kd: 1.98 ± 0.3 nM

B14: target 2 MT 5'PFS GUU 3'PFS UAU (mixed)
RNA 1: B1 RNA 1
RNA 2: B1 RNA 2 with U27G, G28U, C29U, C52U, U53A, C54U
Kd: 16.2 ± 2.7 nM

B15: target 2 MT 5'PFS AUC 3'PFS AGC (mixed)
RNA 1: B1 RNA 1
RNA 2: B1 RNA 2 with U27A, G28U, C52A, U53G
Kd: 21 ± 8 nM

B16: target 2 MT 5'PFS GGC 3'PFS ACG (mixed)
RNA 1: B1 RNA 1
RNA 2: B1 RNA 2 with U27G, C52A, U53C, C54G
Kd: 15.8 ± 1.1 nM

B17: target 2 MT 5'PFS UCG 3'PFS AUC (mixed)
RNA 1: B1 RNA 1
RNA 2: B1 RNA 2 with G28C, C29G, C52A
Kd: ~70 nM

B18: target 2 MT 5'PFS UGC 3'PFS CUG (mixed)
RNA 1: B1 RNA 1
RNA 2: B1 RNA 2 with C54G
Kd: 34 ± 9 nM

B19: target 2 MT 5'PFS UGC 3'PFS CUU (mixed)
RNA 1: B1 RNA 1
RNA 2: B1 RNA 2 with C54U
Kd: ~110 nM

B20: target 2 MT 5'PFS CUC 3'PFS AGG (mixed)
RNA 1: B1 RNA 1
RNA 2: B1 RNA 2 with U27C, G28U, C52A, U53G, C54G
Kd: 2.8 ± 0.5 nM

B21: target 2 MT 5'PFS AUC 3'PFS AGA (mixed)
RNA 1: B1 RNA 1
RNA 2: B1 RNA 2 with U27A, G28U, C52A, U53G, C54A
Kd: ~80 nM

B22: target 2 MT 5'PFS ACU 3'PFS UAC (mixed)
RNA 1: B1 RNA 1
RNA 2: B1 RNA 2 with U27A, G28C, C29U, C52U, U53A
Kd: 6.2 ± 0.9 nM

B23: target 2 MT 5'PFS AUG 3'PFS CUU (mixed)
RNA 1: B1 RNA 1
RNA 2: B1 RNA 2 with U27A, G28U, C29G, C54U
Kd: 15.4 ± 2.9 nM

B24: target 2 MT 5'PFS CUC 3'PFS AGC (mixed)
RNA 1: B1 RNA 1
RNA 2: B1 RNA 2 with U27C, G28U, C52A, U53G
Kd: 1.98 ± 0.25 nM

B25: target 2 MT 5'PFS ACU 3'PFS UAG (mixed)
RNA 1: B1 RNA 1
RNA 2: B1 RNA 2 with U27A, G28C, C29U, C52U, U53A, C54G
Kd: 3.5 ± 0.4 nM

B26: target 2 MT 5'PFS CUC 3'PFS AGU (mixed)
RNA 1: B1 RNA 1
RNA 2: B1 RNA 2 with U27C, G28U, C52A, U53G, C54U
Kd: 3.5 ± 0.8 nM

B27: target 2 MT 5'PFS GUU 3'PFS UAA (mixed)
RNA 1: B1 RNA 1
RNA 2: B1 RNA 2 with U27G, G28U, C29U, C52U, U53A, C54A
Kd: 15.3 ± 3.3 nM

B28: target 2 MT 5'PFS AUG 3'PFS CUC (mixed)
RNA 1: B1 RNA 1
RNA 2: B1 RNA 2 with U27A, G28U, C29G
Kd: 16 ± 5 nM

B29: target 2 MT 5'PFS GCU 3'PFS CGA (mixed)
RNA 1: B1 RNA 1
RNA 2: B1 RNA 2 with U27G, G28C, C29U, U53G, C54A
Kd: 23 ± 5 nM

B30: target 2 MT 5'PFS CUC 3'PFS AGA (mixed)
RNA 1: B1 RNA 1
RNA 2: B1 RNA 2 with U27C, G28U, C52A, U53G, C54A
Kd: 1.68 ± 0.16 nM

B31: target 2 MT 5'PFS GUA 3'PFS GCC (mixed)
RNA 1: B1 RNA 1
RNA 2: B1 RNA 2 with U27G, G28U, C29A, C52G, U53C
Kd: 6.4 ± 1.5 nM

B32: target 2 MT 5'PFS UCU 3'PFS ACU (mixed)
RNA 1: B1 RNA 1
RNA 2: B1 RNA 2 with G28C, C29U, C52A, U53C, C54U
Kd: 9.4 ± 1.8 nM

B33: target 2 MT 5'PFS GUA 3'PFS GCG (mixed)
RNA 1: B1 RNA 1
RNA 2: B1 RNA 2 with U27G, G28U, C29A, C52G, U53C, C54G
Kd: 6.7 ± 0.6 nM

B34: target 2 MT 5'PFS GGC 3'PFS ACA (mixed)
RNA 1: B1 RNA 1
RNA 2: B1 RNA 2 with U27G, C52A, U53C, C54A
Kd: 18 ± 4 nM

B35: target 2 MT 5'PFS ACG 3'PFS AAG (mixed)
RNA 1: B1 RNA 1
RNA 2: B1 RNA 2 with U27A, G28C, C29G, C52A, U53A, C54G
Kd: 9.8 ± 1.8 nM

B36: target 1 insA 3' of 21,insU 3' of 6 (mixed)
RNA 1: CACCCGUGCAAAAAUGCAGGGGUCUAAAACUGAGCGGAUAACCUCUCUAUGG
RNA 2: GGGAAUGGAUCCACAUCUACGAAUUCGUACCAAUAGAGAGGUUAUCCUGCUCACCGAGAUCGGAAGAGCACACGU
Kd: 20.3 ± 1.5 nM

B37: target 1 A9C,G15U (mixed)
RNA 1: B36 RNA 1
RNA 2: GGGAAUGGAUCCACAUCUACGAAUUCGUACCAUAGAUAGGUUCUCCGCUCACCGAGAUCGGAAGAGCACACGU
Kd: ~70 nM

B38: target 1 C2U,A9U (mixed)
RNA 1: B36 RNA 1
RNA 2: B37 RNA 2 with U37G, C43U, C50U
Kd: 8.5 ± 0.7 nM
